This note sets out measurements from article doi:10.1101/2025.02.20.639226, “In vitro reconstitution of minimal human centrosomes” (bioRxiv, 2025).

In assay [1] the target is GFP::CDK5RAP2 isoform B (full-length, wild type) (human) (UniProt Q96SN8). As to the kind of experiment: partitioning into in vitro scaffolds, confocal fluorescence microscopy; 4-component asters: 167nm GFP::CDK5RAP2, 33nM mBFP::γ-TuRCs, 33nM mCherry::HSET, 13μM HiLyte-647-labeled α/β tubulin; 50mM KCl, 25mM HEPES, pH7.4, IgM+; no ATP·MgCl2; compared with 3-component asters.
GFP::CDK5RAP2 isoform B (full-length, wild type) (human), sequence (Q96SN8 other isoform, or with tags, fused parts or gaps): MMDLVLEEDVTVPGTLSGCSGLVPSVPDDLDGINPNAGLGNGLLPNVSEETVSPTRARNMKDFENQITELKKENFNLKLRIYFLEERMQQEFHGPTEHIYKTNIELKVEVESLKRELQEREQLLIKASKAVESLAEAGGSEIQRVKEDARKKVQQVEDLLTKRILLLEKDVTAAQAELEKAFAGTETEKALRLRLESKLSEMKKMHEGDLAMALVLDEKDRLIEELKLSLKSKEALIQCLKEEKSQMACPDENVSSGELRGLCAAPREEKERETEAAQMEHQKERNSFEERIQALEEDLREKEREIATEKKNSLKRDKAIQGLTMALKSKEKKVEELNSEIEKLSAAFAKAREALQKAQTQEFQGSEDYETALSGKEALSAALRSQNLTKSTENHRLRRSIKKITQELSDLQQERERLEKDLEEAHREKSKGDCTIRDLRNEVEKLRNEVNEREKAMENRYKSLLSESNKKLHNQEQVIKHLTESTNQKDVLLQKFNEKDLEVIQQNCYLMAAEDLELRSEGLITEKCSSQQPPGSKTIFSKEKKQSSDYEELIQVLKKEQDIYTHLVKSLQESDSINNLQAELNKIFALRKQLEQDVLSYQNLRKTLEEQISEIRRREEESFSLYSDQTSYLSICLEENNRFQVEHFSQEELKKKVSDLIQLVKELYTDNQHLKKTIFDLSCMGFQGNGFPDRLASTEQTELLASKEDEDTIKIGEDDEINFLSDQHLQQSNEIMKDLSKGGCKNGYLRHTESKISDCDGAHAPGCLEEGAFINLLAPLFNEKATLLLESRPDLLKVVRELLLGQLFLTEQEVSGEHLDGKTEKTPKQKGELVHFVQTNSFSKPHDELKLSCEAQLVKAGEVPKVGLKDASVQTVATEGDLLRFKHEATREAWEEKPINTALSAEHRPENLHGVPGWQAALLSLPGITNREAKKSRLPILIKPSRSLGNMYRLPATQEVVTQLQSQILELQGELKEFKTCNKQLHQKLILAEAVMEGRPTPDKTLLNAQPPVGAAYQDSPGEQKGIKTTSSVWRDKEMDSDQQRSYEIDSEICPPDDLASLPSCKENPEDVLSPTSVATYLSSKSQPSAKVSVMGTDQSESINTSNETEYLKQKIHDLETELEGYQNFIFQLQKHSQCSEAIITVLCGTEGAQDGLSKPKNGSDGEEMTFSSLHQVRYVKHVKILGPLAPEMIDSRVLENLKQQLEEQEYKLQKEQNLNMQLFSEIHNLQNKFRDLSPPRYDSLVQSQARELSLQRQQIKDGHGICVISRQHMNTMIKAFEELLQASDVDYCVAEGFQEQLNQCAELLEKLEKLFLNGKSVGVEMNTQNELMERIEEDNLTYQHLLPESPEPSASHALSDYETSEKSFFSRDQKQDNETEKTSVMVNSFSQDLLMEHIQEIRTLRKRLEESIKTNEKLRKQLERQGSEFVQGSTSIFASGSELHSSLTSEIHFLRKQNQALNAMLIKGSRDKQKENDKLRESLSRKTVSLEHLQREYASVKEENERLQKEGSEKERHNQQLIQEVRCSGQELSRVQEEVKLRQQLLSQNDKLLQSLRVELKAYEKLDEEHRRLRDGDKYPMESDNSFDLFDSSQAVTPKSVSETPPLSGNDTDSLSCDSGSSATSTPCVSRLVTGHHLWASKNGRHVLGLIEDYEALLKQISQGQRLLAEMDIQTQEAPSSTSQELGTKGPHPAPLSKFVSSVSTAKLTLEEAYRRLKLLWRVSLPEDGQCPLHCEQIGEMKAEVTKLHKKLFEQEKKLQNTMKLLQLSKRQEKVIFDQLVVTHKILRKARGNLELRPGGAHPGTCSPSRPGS

The target in assay [2] is T1, GFP::CDK5RAP2 isoform B (full-length, wild type) (human, UniProt Q96SN8-4 1-1814).
T1 construct: CDK5 regulatory subunit-associated protein 2 (CDK5RAP2/CEP215), human, isoform B, Protein ID Q96SN8-4, lacking a.a; 1576-1654 of the longest isoform; Stood in the assays as micron-scale assemblies nucleated by an anti-CM2 IgM; also called CEP215; GFP::CDK5RAP2 scaffolds; source: SF9 insect cells (baculovirus, FlexiBAC), purified (Ni-NTA, MBP trap beads, eluted with PreScission protease)
T1 sequence (Q96SN8 other isoform, or with tags, fused parts or gaps): as above
Briefly: partitioning into in vitro scaffolds, confocal fluorescence microscopy; GFP::CDK5RAP2 assemblies (120nM) induced with anti-CM2 IgM; mCherry, full-length or ΔIDR mCherry::HSET at 50nM; 50mM KCl, 25mM HEPES; partition coefficient. The note with it: both partners purified.

Take “human gamma tubulin ring complex tagged with blue fluorescent protein (mBFP::γ-TuRC) (from UniProt P23258 1-451)”: in assay [1], the fold more recruited into scaffolds in the presence of mCherry::HSET (4-component against 3-component) amounted to 1.4 fold.

B1: mCherry::HSET (full-length, wild type) (natural protein, human, UniProt Q9BW19 1-673, looked up)
chain: MDPQRSPLLEVKGNIELKRPLIKAPSQLPLSGSRLKRRPDQMEDGLEPEKKRTRGLGATTKITTSHPRVPSLTTVPQTQGQTTAQKVSKKTGPRCSTAIATGLKNQKPVPAVPVQKSGTSGVPPMAGGKKPSKRPAWDLKGQLCDLNAELKRCRERTQTLDQENQQLQDQLRDAQQQVKALGTERTTLEGHLAKVQAQAEQGQQELKNLRACVLELEERLSTQEGLVQELQKKQVELQEERRGLMSQLEEKERRLQTSEAALSSSQAEVASLRQETVAQAALLTEREERLHGLEMERRRLHNQLQELKGNIRVFCRVRPVLPGEPTPPPGLLLFPSGPGGPSDPPTRLSLSRSDERRGTLSGAPAPPTRHDFSFDRVFPPGSGQDEVFEEIAMLVQSALDGYPVCIFAYGQTGSGKTFTMEGGPGGDPQLEGLIPRALRHLFSVAQELSGQGWTYSFVASYVEIYNETVRDLLATGTRKGQGGECEIRRAGPGSEELTVTNARYVPVSCEKEVDALLHLARQNRAVARTAQNERSSRSHSVFQLQISGEHSSRGLQCGAPLSLVDLAGSERLDPGLALGPGERERLRETQAINSSLSTLGLVIMALSNKESHVPYRNSKLTYLLQNSLGGSAKMLMFVNISPLEENVSESLNSLRFASKVNQCVIGTAQANRK
notes: HSET/KifC1, kinesin-14 motor protein, human; also called KifC1; HSET/KifC1; source: SF9 insect cells (baculovirus, FlexiBAC), purified (Ni-NTA)
For B1, in assay [2], the binding result is on record as “binds”.
